Experimental data from publication doi:10.1101/2022.11.10.515958 (bioRxiv, 2022).

Target: T1, GST-Whi7 (S. cerevisiae, UniProt P36167 1-246)
T1 sequence (looked up): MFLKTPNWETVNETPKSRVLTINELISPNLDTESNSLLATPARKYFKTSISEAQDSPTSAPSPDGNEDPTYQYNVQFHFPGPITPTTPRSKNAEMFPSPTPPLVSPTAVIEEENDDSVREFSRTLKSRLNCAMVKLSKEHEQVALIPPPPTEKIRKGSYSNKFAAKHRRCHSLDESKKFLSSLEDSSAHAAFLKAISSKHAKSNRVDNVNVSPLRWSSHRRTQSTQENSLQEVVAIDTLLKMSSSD
Assay: pull-down

binding result: binds
B1: Cks1-ALFA (natural protein, S. cerevisiae, UniProt P20486 1-150, looked up)
chain: MYHHYHAFQGRKLTDQERARVLEFQDSIHYSPRYSDDNYEYRHVMLPKAMLKVIPSDYFNSEVGTLRILTEDEWRGLGITQSLGWEHYECHAPEPHILLFKRPLNYEAELRAATAAAQQQQQQQQQQQQQQQQHQTQSISNDMQVPPQIS
